# In publication PMC3527473, “The C-Terminus of ClpC1 of Mycobacterium tuberculosis Is Crucial for Its Oligomerization and Function” (PLoS ONE, 2012):
# B1: ClpC1-Δ3 (N-terminal truncated mutant, both N-terminal domains deleted) (domain or fragment)
# chain: REGEGVAAQVLVKLGAELTRVRQQVIQLLSGYQGKEAAEAGTGGRGGESGSPSTSLVLDQFGRNLTAAAMEGKLDPVIGREKEIERVMQVLSRRTKNNPVLIGEPGVGKTAVVEGLAQAIVHGEVPETLKDKQLYTLDLGSLVAGSRYRGDFEERLKKVLKEINTRGDIILFIDELHTLVGAGAAEGAIDAASILKPKLARGELQTIGATTLDEYRKYIEKDAALERRFQPVQVGEPTVEHTIEILKGLRDRYEAHHRVSITDAAMVAAATLADRYINDRFLPDKAIDLIDEAGARMRIRRMTAPPDLREFDEKIAEARREKESAIDAQDFEKAASLRDREKTLVAQRAEREKQWRSGDLDVVAEVDDEQIAEVLGNWTGIPVFKLTEAETTRLLRMEEELHKRIIGQEDAVKAVSKAIRRTRAGLKDPKRPSGSFIFAGPSGVGKTELSKALANFLFGDDDALIQIDMGEFHDRFTASRLFGAPPGYVGYEEGGQLTEKVRRKPFSVVLFDEIEKAHQEIYNSLLQVLEDGRLTDGQGRTVDFKNTVLIFTSNLGTSDISKPVGLGFSKGGGENDYERMKQKVNDELKKHFRPEFLNRIDDIIVFHQLTREEIIRMVDLMISRVAGQLKSKDMALVLTDAAKALLAKRGFDPVLGARPLRRTIQREIEDQLSEKILFEEVGPGQVVTVDVDNWDGEGPGEDAVFTFTGTRKPPAEPDLAKAGAHSAGGPEPAAR
# Target: the molecule itself
# Test: SEC; Superdex-200 (1×30 cm) in buffer A (50 mM Tris-HCl pH 7.6, 100 mM KCl, 5 mM DTT, 10% glycerol, 0.01% Triton X-100) with 15 mM ATP and 10 mM MgCl2; protein pre-incubated with 15 mM ATP and 10 mM MgCl2 for 30 min at 25°C; monomer to hexamer; fractions checked by SDS-PAGE
protein,measurement,value
B1,binding result,binds
